Test results taken from the DeepSol protein solubility set.

Assay: soluble on expression in E. coli; label from the status in PepcDB or PDB records
With “HAEVIASGRLEKCVVDGVTEELDCQEKVVVTLTVGNGQSLQTEALEFSLSCLNSPDGRCPCSCSAADPTCACRDLAAPLRVSLTKSPLWASYPLQYLSSFNWKPLEVILRPSNKVCKDGDWEDSPTCGWFSQGGVRVADSQGFCCECSSSQVWDDTFGSSKERTRANLDCDFWSDPLDILIGRKPVSAHCLTFDPQWYSGYELGAASLQFEIAITVEVPTAPSPTTATTSATPRTNNSSSANSTNSTNSPAPQFLSPPAPSTREVLHLGPSVPLASSASRLLSAKLLGDLAMYTQLPAISNQVLMVPQPPAAAAATGSPLDATLATNRSAWMLLDKTMLSMDGLACDKVGTGFSAFRYQPSGCGRAPQACLSGQLKDLWEADLARIADGRVPLYMITRFTGGSDTTLQSFSGGPLSFALPVTSHSQSLVTLSVAADGVRLVTNRSPGKITGAAVCRFAGTSCGGFEAVAARGYIYVNITNTGRLDSDYTLTVSNCSSNVRPIEARTLAVRAGSAASLDPPMELYVEDQAAAAARTCTVSLYDSVGAVTDSLTLSFYTNATQLVVKPSGGYNGTGDGAGVKRNGTDCSTACTNPIDVLCFVTKKCWSKFGR” the “soluble on expression in E. coli” value was “not soluble”. In the case of “MAERGFREGTLEEASKILGVDKSSLASLSNLLAEKGVVEVEERVEEHYVLTERGRDALERGLPEEKLVLFLAGRGGEASVEEVRRALGEEAGIALGQAARKGLVVIAGGVVRLAVDQAEALKTITPLKKLLENVASGSKPTVGDELLREALSRGLIRREARRSIVLRLKVNPAEALARARVEAAVLTRDMLKSGEWRRLRFKPYNVKAEPPRVLPARRHFLAEFIERLRDILRELGFREVRGPLVELELFNFDVLFQAQDHPAREIHDSLWIKSPRRGDLSGYSDLVERVASVHERGWKYRWSPEVASRYILRSQTTAVSARILATRPNPPARFFTVGKVFRSDAVGPTRLPEFHQLDGIEGDEGYTFRDLLGRLDEIASMLGLKLKFKPAYFPFTEPSVEGYVKLPNGRWLELFGAGMFRPEVLEAVGVDYPVGAWGFGIERLAMAFYGVSDIRKLYTRNVDEVREMRVRWL”, the “soluble on expression in E. coli” value is reported as “soluble”. For “MDIHVLSYGLGNQLSQYAFFINRRQLMQRAYAFYAFKQHNGYELDRIFGLKEGLPWYLQFVRVVFRLGISRRFYSKRTADFVLSLFRIKVIDEAYNYEFDPSLLKPWFGIRILYGGWHDSRYFHPSEAAVRTAFSFPPLDDVNDAILQQIDAVYGVSIHVRRGDYLKGINSNLFGGIATLEYYRNAIGWAITYCKHRSLEIKFYVFSDDIDWCKQNLGLRDAVYVSGNSKTDSWKDILLMSHCRANIIANSTFSWWAAWLNQQPNKVVICPTKFINTDSPNQTIYPAAWHQIEGLEHHHHHH”, the “soluble on expression in E. coli” value was “not soluble”. For “MSNYTVKIKNSAKSDLKKIKHSYLKKSFLEIVETLKNDPYKITQSFEKLEPKYLERYSRRINHQHRVVYTVDDRNKEVLILSAWSHYD”, the “soluble on expression in E. coli” value was “not soluble”. In the case of “MSVQLKCDAVNCVYNRSHLCSAEEIEVQGGETTGGDATFCGTFSSKSLGNFVSSLGNMNYSGSLKQAVSAEPIMDPKVHCNAVNCTYNDQRYCHADQVEIRNEVSHTAEELEHHHHHH”, the “soluble on expression in E. coli” value is reported as “soluble”. In the case of “MGSDKIHHHHHHMSREILRVENLVKHFPIRAGVFKRIVGWVKAVDGVSFSINEGETFGLVGESGCGKTTIGMTLLRLYEPTSGRIIVDNEDTTYYFMPRSKAKKYIKQTYLSRFVNMKESDVEKLEGVDREYARIFFEEAKGSPKKFMSILLDDLPEKRKKFRREMQIVFQDPYSSLNPRLRVKSIVGEGIVTHRIARGKEVEKRIKEILEDVGIPSAYVYRFPHEFSGGQRQRIGIARALALEPKLVVADEAVAALDVSIRSQIINLMEDLQREHKLTYIFISHDLAVVKHISDRIGVMYLGKMVELAPKKDLFEKPLHPYTVALMSAIPVPDPTKKRERIILKGDVPSPINPPSGCRFHTRCPIAKEICSKEEPAFREVEEGHFVACHFPGELR”, the “soluble on expression in E. coli” value is reported as “not soluble”. For “MAPPTPHLAVRGSDGTLLLHGPPNCQESSAFQRDDRQGRYMTFSNDGTLFAWCNGSQVTVLKVPSGDLVKSFDLPKTTALEFSPLNKVLATWQQYTKTQDNPQGEANLQLWDLQTGACMKAFYQKKMTGWCPSWADDESISVRNVNNELHFFENNNFETIANKLHLQKVSEFALSPGSQPSKVAVYVPGSKGAPSFVRLYQYPNFGGPTCALANKSFFKADKVNMLWNKKATAVLVTASTEVDKTGASYYGEQTLHYVATNGESAVVQLPKNGPIYDVSWSPNSTEFCVVYGFMPAKATVFNNKCESVFDFGTGPRNAAFYSPQGHILVLAGFGNLRGQMEVWDVKKYKQVSKPQAEDTTHFSWCPDGEHIVTATCSPRLRASNGYKIWHYTGTVLYKHETPSGKELWEVLWQPFPAGVFPERAVKYQALPSELGSTEAKPAQAYRPPALRNKPQTASSKLHEEEPPQNMKPGAAGEKQPSKAALKNQKRREAKKAAKQENKPDEAPPPAADPAPVSHVTSSCGDPETDKKIKNLKKKLKAIDELKEQQAAGKVMQKNQLEKMQKEAQLLKELEDLELGL”, the “soluble on expression in E. coli” value was “soluble”. In the case of “MSVSITFTDAAKRALASIVAQSERQLKLAFDTDGCGCLVDGVPALWLVDKADEDDVVVETNFMPVLVERSRLIFFDEAMTIDVKPGTTVFQLKSPGQTLNGHMPLVEVKSGHER”, the “soluble on expression in E. coli” value is reported as “not soluble”. For “MEQQIADLLDEQEELDLPQEQLEAAEGESEEESEEESSQGEKFPKTRAARIQRLVRDAAVSRNVKDLYGGECQACGLRLVGPDGRPYSEGAHIRPLGKPHCGPDVEPNVLCLCPNCHVRLDIGAIIIEDDWSIIVRAGELGGNVLSKLKRKKEHHVHLDYVRYHREWWLEKGDPSQELEHHHHHH”, the “soluble on expression in E. coli” value was “soluble”. For “MAVLYKSFQSVLEDKNHKKMFHPRVIYTANISTSQIAKEIAAYSSLSPGDVKNTLDNLVTVMGQHLQASESVSLDGFGTFRMVMKSNGKGVETSEEVSAAQASLTVRFLPNFTKNPDRTTATRSLVTGAKCVRFDRTDTPASGSGNTNKPGGGDGGEGGGEEAPDPTV”, the “soluble on expression in E. coli” value was “not soluble”. With “MGHHHHHHSHMSGVAGGASKKSSSRTMATKKLIIDEFKRRLRDNIKSLNDNFFHIIQAAKVNPDDNAYKNQTGKMTEFYTTKNEMAVRAQLMVRASDELLKLTADLKEFLILHDFHFLTHNIKQAEAQCEETLRQQSHQHNCLDSEVSNILFDLEREIAENFYLRHT” the “soluble on expression in E. coli” value was “not soluble”. With “MASLFTQEIHLSKRHEEILSQRLMLLQKMKNKFGDENTERASLLQATETASRRNLRLLKDIDAAEEAFQTKLIPHPQPSMLSLETRYWASVEEHIPKWELFLLGRAPYPIGAENQNEVPFVQTEATL” the “soluble on expression in E. coli” value was “soluble”. In the case of “MRVVYTSPRIENLQFLKSEFSNYSVIVLEEPKNDLFHDVLEGKITVDLYVRKISTQFPLYTRKLIEMLKELKSREIMQVEPYLEEVERLKNFSEGDERVREMEKRVNALYIDYTESFLKSDFDEIVEKVLRFSEAEAERIMLRDEMRAKALDDLDEAVIEAGMNHIKLAEILDAESVRIPEIIAERLGTRYLENPGEKLLKAFIFEEDDDLRLLAARNLIFTSLLEKREMEPDFDGDYPHFTHEQKLVRFVDKLDYEKCRKLFYRFWSPR”, the “soluble on expression in E. coli” value is reported as “not soluble”. For “MKYMIGVDGGGTKTEAIAFDKDGNELVRATSGFGNILIDFEEALVHIMEAINQCQKSLINGHCVCVCLGLAGISGANTNELTLRLKKKYGTKIEIFNDAMIAHAAALKGKDGILTIGGTGAICIGKKGEVYQYSGGWGHILGDEGSGYWIALQALKKMAIQFDQGISLCPLSLNIQRQFQLLTPSHIKSLVYTSSKDKIAAIAPLVIQEARDGNDDAHEIMMQAGKELARITVNVYNKLNFKHSTPIAASGSILRLVPEIFAVFKKCCEESMKEITFVSQAEMAVKGTYYLMRDIYFLEHHHHHH”, the “soluble on expression in E. coli” value was “soluble”. With “MGSDKIHHHHHHMYKLNLDIQAFLANDWQQAPKVFKGAFPDFEDPIAADELAGLACEEEVSSRVVVTKGNDWEVISGPFEDYDRFGETHWQLLVQAVNHWYPESQPLVEAFRFLPDWRFDDLMVSFATPQGGVGPHIDNYDVFIIQGEGQRRWTVGPKGNYQRRGGVTTSPLIEDFEPIIDVVLEKGDVLYIPPGFPHQGETLTLALSYSMGYRAPSQQELAGQIADQLMDEDKGHKRFIAVDGAASHGTVSLAEQQGIMQLIRDLCNDTDNVVKVLGKLLSQNRFDLDIQEDESIDADALVEALNEGAVLMRIGGLKVLKMEGDSQARLFVAGESVIIEGASEEELIEVSNSVNVNAELAQLPHWQGFFVQMLQKGYFYLGED” the “soluble on expression in E. coli” value was “not soluble”.
